From patent US20110293511A1, “SPECIFIC BINDING PROTEINS AND USES THEREOF” (priority 2009, published 2011)

B1: hu806: humanized (veneered) 806 antibody, human IgG1; SEQ ID NO:42 and SEQ ID NO:47 (antibody, V domains shown)
VH: MDWTWRILFLVAAATGVHSQVQLQESGPGLVKPSQTLSLTCTVSGYSISSDFAWNWIRQPPGKGLEWMGYISYSGNTRYQPSLKSRITISRDTSKNQFFLKLNSVTAADTATYYCVTAGRGFPYWGQGTLVTVSS
VL: MDWTWRILFLVAAATGVHSDIQMTQSPSSMSVSVGDRVTITCHSSQDINSNIGWLQQKPGKSFKGLIYHGTNLDDGVPSRFSGSGSGTDYTLTISSLQPEDFATYYCVQYAQFPWTFGGGTKLEIKR
B2: mAb1133: murine IgG2a monoclonal antibody, clone 1133; VH SEQ ID NO:32, VL SEQ ID NO:37 (antibody, listed as Mus musculus, V domains shown)
VH: DVQLQGSGPSLVKPSQSLSLTCTVTGYSITSDYAWNWIRQFPGNKLEWMGYISYSGNTRYNPSLRSRISITRDTSKNQFFLQLNSVTTEDTATYYCATAGRGFPYWGQGTLVTVSA
VL: DILMTQSPSSMSVSLGDTVNITCHSSQDINSNIGWLQQKPGKSFKGLIYHGTNLDDGVPSRFSGSGSGADYSLTISSLESEDFADYYCVQYGQFPWTFGGGTKLEIKR

How the values were obtained:
A431 cells = experiment: ADCC assay; format: cell-based, human; settings: 1 μg/mL; representative experiment
Procedure: PBMCs were isolated from healthy volunteer donor blood. Heparinized whole blood was fractionated by density centrifugation on Ficoll-Hypaque (ICN Biomedical Inc., Ohio, USA). PBMC fractions was collected and washed three times with RPMI^+ 1640 supplemented with 100 U/ml penicillin and 100 μg/ml streptomycin, 2 mM L-glutamine, containing 5% heat-inactivated FCS.
CDC and ADCC assays were performed by a modification of a previously published method (Nelson, D. L. et al. (1991) In: J. E. Colignan, A. M. Kruisbeek, D. D. Margulies, E. M. Shevach, and W. Strober (eds.), Current Protocols in Immunology, pp. 7.27.1. New York: Greene Publishing Wiley Interscience). Briefly, 5×10^6 target U87MG.de2-7 and A431 cells were labeled with 50 μCi^51Cr (Geneworks, Adelaide, Australia) per 1×10^6 cells and incubated for 2 hr at 37° C. The cells were then washed three time with PBS (0.05M, pH 7.4) and a fourth wash with culture medium. […]
In the first assay, labelled target cells were plated with the effector cells in 96-well “U” bottom microplates (NUNC, Roskilde, Denmark) at effector/target (E:T) cell ratios of 50:1. […] In both assays, micotitre plates were incubated at 37° C. for 4 hours, then 50 μl supernatant was harvested from each well and released ^51Cr was determined by gamma counting (Cobra II automated Gamma Counter, Canberra Packard, Melbourne, Australia). […]

A431 xenografts = experiment: s.c. xenograft therapy study; format: in vivo, nude mice; settings: established; 6×1 mg IP
Procedure: Tumor cells (3×10^6) in […] of PBS were inoculated subcutaneously into both flanks of 4-6 week old female nude mice (Animal Research Centre, Western Australia, Australia). […] Treatment was continued for a total of 6 doses, 3 times per week for 2 weeks. In the established model, treatment was started when tumors had reached a mean volume of 65±6.42 mm^3 (U87MG.Δ2-7), 84±9.07 mm3 (U87MG), 73±7.5 mm^3 (U87MG.wtEGFR) or 201±19.09 mm^3 (A431 tumors). Tumor volume in mm^3 was determined using the formula […], where length was the longest axis and width the measurement at right angles to the length (Clark et al. (2000) Therapeutic efficacy of anti-Lewis (y) humanized 3S 193 radioimmunotherapy in a breast cancer model: enhanced activity when combined with Taxol chemotherapy. Clin. Cancer Res. 6, 3621-3628). Data was expressed as mean tumor volume±S.E. for each treatment group. Statistical analysis was performed at given time points using Student's t-test. Animals were euthanized when the xenografts reached an approximate volume of 1.5 cm^3 and the tumors excised for histological examination. This research project was approved by the Animal Ethics Committee of the Austin and Repatriation Medical Centre.
AG1478 (4-(3-Chloroanilino)-6,7-dimethoxyquinazoline) is a potent and selective inhibitor of the EGFR kinase versus HER2-neu and platelet-derived growth factor receptor kinase (Calbiochem Cat. No. 658552). […] The results are illustrated in FIG. 12. […] 400 μg AG1478 was administered at 0, 2, 4, 7, 9, and 11 days post xenograft.
With respect to “(iv),” different groups of mice received either 0.5 mg/injection of each mAb, or 0.25 mg/injection of each mAb.
Finally, the fourth group of mice, which had been inoculated with A431 cells, received injections as in groups I and III, at 8, 10, 12 and 14 days after inoculation. At the start, the average tumor size was 71 mm^3.
To establish xenografts, mice were injected subcutaneously into the right and left inguinal mammary line with 1×10^6 A431 adenocarcinoma cells or 1×10^6 U87MG.de2-7 glioma cells in 100 μl of PBS. Tumor volume (TV) was calculated by the formula […] where length was the longest axis and width the measurement at right angles to length. […] Therapy was administered on days 6, 8, 11, 13, 15 and 18 for A431, and days 4, 6, 8, 11, 13 and 15 for the U87MG.de2-7 cell lines respectively. Mean±SEM tumor volumes until termination of the experiments due to ethical considerations of tumor burden are presented in FIG. 91 for the A431 xenograft until day 25, and in FIG. 92 for U87MG.de2-7 xenografts until day 31.

xenograft A431 = experiment: immunohistochemical analysis on xenograft tumors; format: binding, human
From the text: The murine fibroblast line NR6ΔEGFR was used as immunogen. Mouse hybridomas were generated by immunizing BALB/c mice five times subcutaneously at 2- to 3-week intervals, with 5×10^5-2×10^6 cells in adjuvant. Complete Freund's adjuvant was used for the first injection. Thereafter, incomplete Freund's adjuvant (Difco™, Voigt Global Distribution, Lawrence, Kans.) was used. Spleen cells from immunized mice were fused with mouse myeloma cell line SP2/0 (Shulman et al. (1978) Nature 276:269-270). Supernatants of newly generated clones were screened in hemadsorption assays for reactivity with cell line NR6, NR6wtEGFR, and NR6ΔEGFR and then analyzed by hemadsorption assays with human glioblastoma cell lines U87MG, U87MGwtEGFR, and U87ΔEGFR. Selected hybridoma supernatants were subsequently tested by western blotting and further analyzed by immunohistochemistry. Newly generated mAbs showing the expected reactivity pattern were purified.
Bound antibody was detected using the Dako Envision+ HRP detection system as per manufacturer's instructions. Sections were finally rinsed with water, counterstained with hematoxylin and mounted.

xenograft U87MGΔEGFR = experiment: immunohistochemical analysis on xenograft tumors; format: binding, human
[1] = target: T1, denatured soluble domain of the EGFR (sEGFR) (Homo sapiens, UniProt P00533); experiment: competition ELISA with biotinylated mAb806; format: binding; settings: after unlabeled blocking antibody
T1 construct: sEGFR is the recombinant extracellular domain (amino acids 1-621) of the wild-type EGFR); host or cells: CHO cells
Procedure: Briefly, the denatured soluble domain of the EGFR (sEGFR) was coated on to ELISA plates. The unlabeled 124 or 1133 antibodies were then added across the plate in increasing concentrations.

Molecule | ADCC cytotoxicity (A431 cells) [%] | xenograft growth versus PBS vehicle control (A431 xenografts) | Immunohistochemical staining (xenograft A431) | Immunohistochemical staining (xenograft U87MGΔEGFR) | Binding of biotin-labeled 806 [1]
B1 | 30 | marked reduction in A431 xenograft growth | – | – | –
B2 | – | – | pos. (predominantly basal | pos. | None
